The numbers were not newly measured in publication PMC4543363, which cites them from elsewhere.

Some results are limits rather than exact numbers.

For series [1], the target named is NF-κB dimer (Homo sapiens) (UniProt P19838).
For series [2], the target named is NF-κB p50 (Homo sapiens) (UniProt P19838).

The Kd is the concentration at which binding is half-saturated. With IκBα (from UniProt P25963), in series [1], the equilibrium dissociation constant (Kd) is less than 0.1 nM.

Turning to NF-κB p65 (from UniProt Q04206), the Kd in series [2] was 100 nM.
